Assay results as given in patent US10738340B2, “Methods and materials for enzymatic synthesis of mogroside compounds” (EVOLVA SA, priority 2011, dated 2020).

Test: In vitro UGT screening: reactions of mogrol with a panel of 230 UGT enzymes, products analyzed with LC-MS
Type: biochemical
Details: for position of mogrol glycosylated by the UGT: aglycone mogrol as substrate, see FIG. 2; for product formed from mogrol substrate in the in vitro UGT reaction (LC-MS): partially purified UGT enzyme or crude enzyme extract
Protocol: In vitro reactions of mogrol with a panel of 230 UGT enzymes were performed and the products were analyzed with LC-MS. The in vitro UGT reaction mixtures included 4× Tris buffer, mogrol (250 μM), UDP-glucose (750 μM) and 1% alkaline phosphatase. Five μl of each partially purified UGT enzyme or crude enzyme extract was added to the reaction, and the reaction volume brought to 50 μl with water. The reactions were incubated overnight at 30° C. and performed in sterilized 96 well plates. After the incubation, 25 μL of DMSO were added into each reaction and the reaction plates were centrifuged for 5 min. Forty μL samples were taken from each well and filtered, and were used for LC-MS analysis.

[1] = mogrol 250 μM, UDP-glucose 750 μM, overnight at 30° C.

B1: UGT 73E1: UDP dependent glucosyltransferase from Stevia rebaudiana, glycosyltransferase family I, SEQ ID NO:4 (protein, listed as Stevia rebaudiana)
chain: MSPKMVAPPTNLHFVLFPLMAQGHLVPMVDIARILAQRGATVTIITTPYHANRVRPVISRAIATNLKIQLLELQLRSTEAGLPEGCESFDQLPSFEYWKNISTAIDLLQQPAEDLLRELSPPPDCIISDFLFPWTTDVARRLNIPRLVFNGPGCFYLLCIHVAITSNILGENEPVSSNTERVVLPGLPDRIEVTKLQIVGSSRPANVDEMGSWLRAVEAEKASFGIVVNTFEELEPEYVEEYKTVKDKKMWCIGPVSLCNKTGPDLAERGNKAAITEHNCLKWLDERKLGSVLYVCLGSLARISAAQAIELGLGLESINRPFIWCVRNETDELKTWFLDGFEERVRDRGLIVHGWAPQVLILSHPTIGGFLTHCGWNSTIESITAGVPMITWPFFADQFLNEAFIVEVLKIGVRIGVERACLFGEEDKVGVLVKKEDVKKAVECLMDEDEDGDQRRKRVIELAKMAKIAMAEGGSSYENVSSLIRDVTETVRAPH
- position of mogrol glycosylated by the UGT: glycosylate at the C24-OH position
- completeness of the mogrol glycosylation reaction [1]: the reaction was not complete
- product formed from mogrol substrate in the in vitro UGT reaction (LC-MS) [1]: mogroside Ib was found as the major product, together with a new glycosylated mogrol

B2: UGT 73C6: UDP dependent glucosyltransferase from Arabidopsis thaliana, glycosyltransferase family I, SEQ ID NO:3 (protein, listed as Arabidopsis thaliana)
chain: MAFEKNNEPFPLHFVLFPFMAQGHMIPMVDIARLLAQRGVLITIVTTPHNAARFKNVLNRAIESGLPINLVQVKFPYQEAGLQEGQENMDLLTTMEQITSFFKAVNLLKEPVQNLIEEMSPRPSCLISDMCLSYTSEIAKKFKIPKILFHGMGCFCLLCVNVLRKNREILDNLKSDKEYFIVPYFPDRVEFTRPQVPVETYVPAGWKEILEDMVEADKTSYGVIVNSFQELEPAYAKDFKEARSGKAWTIGPVSLCNKVGVDKAERGNKSDIDQDECLEWLDSKEPGSVLYVCLGSICNLPLSQLLELGLGLEESQRPFIWVIRGWEKYKELVEWFSESGFEDRIQDRGLLIKGWSPQMLILSHPSVGGFLTHCGWNSTLEGITAGLPMLTWPLFADQFCNEKLVVQILKVGVSAEVKEVMKWGEEEKIGVLVDKEGVKKAVEELMGESDDAKERRRRAKELGESAHKAVEEGGSSHSNITFLLQDIMQLAQSNN
- position of mogrol glycosylated by the UGT: glycosylate at the C24-OH position
- product formed from mogrol substrate in the in vitro UGT reaction (LC-MS) [1]: convert all the mogrol substrate to mogroside Ib

B3: UGT 73C3: UDP dependent glucosyltransferase from Arabidopsis thaliana, glycosyltransferase family I, SEQ ID NO:1 (protein, listed as Arabidopsis thaliana)
chain: MATEKTHQFHPSLHFVLFPFMAQGHMIPMIDIARLLAQRGVTITIVTTPHNAARFKNVLNRAIESGLAINILHVKFPYQEFGLPEGKENIDSLDSTELMVPFFKAVNLLEDPVMKLMEEMKPRPSCLISDWCLPYTSIIAKNFNIPKIVFHGMGCFNLLCMHVLRRNLEILENVKSDEEYFLVPSFPDRVEFTKLQLPVKANASGDWKEIMDEMVKAEYTSYGVIVNTFQELEPPYVKDYKEAMDGKVWSIGPVSLCNKAGADKAERGSKAAIDQDECLQWLDSKEEGSVLYVCLGSICNLPLSQLKELGLGLEESRRSFIWVIRGSEKYKELFEWMLESGFEERIKERGLLIKGWAPQVLILSHPSVGGFLTHCGWNSTLEGITSGIPLITWPLFGDQFCNQKLVVQVLKAGVSAGVEEVMKWGEEDKIGVLVDKEGVKKAVEELMGDSDDAKERRRRVKELGELAHKAVEKGGSSHSNITLLLQDIMQLAQFKN
- position of mogrol glycosylated by the UGT: glycosylate at the C24-OH position
- product formed from mogrol substrate in the in vitro UGT reaction (LC-MS) [1]: convert all the mogrol substrate to mogroside Ib

B4: UGT 73C5: UDP dependent glucosyltransferase from Arabidopsis thaliana, glycosyltransferase family I, SEQ ID NO:2 (protein, listed as Arabidopsis thaliana)
chain: MVSETTKSSPLHFVLFPFMAQGHMIPMVDIARLLAQRGVIITIVTTPHNAARFKNVLNRAIESGLPINLVQVKFPYLEAGLQEGQENIDSLDTMERMIPFFKAVNFLEEPVQKLIEEMNPRPSCLISDFCLPYTSKIAKKFNIPKILFHGMGCFCLLCMHVLRKNREILDNLKSDKELFTVPDFPDRVEFTRTQVPVETYVPAGDWKDIFDGMVEANETSYGVIVNSFQELEPAYAKDYKEVRSGKAWTIGPVSLCNKVGADKAERGNKSDIDQDECLKWLDSKKHGSVLYVCLGSICNLPLSQLKELGLGLEESQRPFIWVIRGWEKYKELVEWFSESGFEDRIQDRGLLIKGWSPQMLILSHPSVGGFLTHCGWNSTLEGITAGLPLLTWPLFADQFCNEKLVVEVLKAGVRSGVEQPMKWGEEEKIGVLVDKEGVKKAVEELMGESDDAKERRRRAKELGDSAHKAVEEGGSSHSNISFLLQDIMELAEPNN
- position of mogrol glycosylated by the UGT: glycosylates at both the C3-OH (UGT #1 in FIG. 2) and C24-OH position
- product formed from mogrol substrate in the in vitro UGT reaction (LC-MS) [1]: makes both mogroside Ia and Ib

B5: UGT 85C2: UDP dependent glucosyltransferase from Stevia rebaudiana, glycosyltransferase family I, SEQ ID NO:5 (protein, listed as Stevia rebaudiana)
chain: MDAMATTEKKPHVIFIPFPAQSHIKAMLKLAQLLHHKGLQITFVNTDFIHNQFLESSGPHCLDGAPGFRFETIPDGVSHSPEASIPIRESLLRSIETNFLDRFIDLVTKLPDPPTCIISDGFLSVFTIDAAKKLGIPVMMYWTLAACGFMGFYHIHSLIEKGFAPLKDASYLTNGYLDTVIDWVPGMEGIRLKDFPLDWSTDLNDKVLMFTTEAPQRSHKVSHHIFHTFDELEPSIIKTLSLRYNHIYTIGPLQLLLDQIPEEKKQTGITSLHGYSLVKEEPECFQWLQSKEPNSVVYVNFGSTTVMSLEDMTEFGWGLANSNHYFLWIIRSNLVIGENAVLPPELEEHIKKRGFIASWCSQEKVLKHPSVGGFLTHCGWGSTIESLSAGVPMICWPYSWDQLTNCRYICKEWEVGLEMGTKVKRDEVKRLVQELMGEGGHKMRNKAKDWKEKARIAIAPNGSSSLNIDKMVKEITVLARN
- position of mogrol glycosylated by the UGT: glycosylate at the C24-OH position
- product formed from mogrol substrate in the in vitro UGT reaction (LC-MS) [1]: convert all the mogrol substrate to mogroside Ib
